From paper PMC12017343, “Extended repertoire of CXC chemokines acting as agonists and antagonists of the human and murine atypical chemokine receptor ACKR2” (Journal of Leukocyte Biology, 2025)

T1: mouse ACKR2 N-terminally fused with the NanoLuc (mouse, UniProt O08707 1-378)
T1 construct: atypical chemokine receptor 2 (ACKR2), mouse; also called mACKR2; NanoLuc-ACKR2; source: HEK293T, stably expressing (pIRES-puromycin vector), on cells; not shown: NanoLuc, N-terminal, kept
T1 sequence (looked up): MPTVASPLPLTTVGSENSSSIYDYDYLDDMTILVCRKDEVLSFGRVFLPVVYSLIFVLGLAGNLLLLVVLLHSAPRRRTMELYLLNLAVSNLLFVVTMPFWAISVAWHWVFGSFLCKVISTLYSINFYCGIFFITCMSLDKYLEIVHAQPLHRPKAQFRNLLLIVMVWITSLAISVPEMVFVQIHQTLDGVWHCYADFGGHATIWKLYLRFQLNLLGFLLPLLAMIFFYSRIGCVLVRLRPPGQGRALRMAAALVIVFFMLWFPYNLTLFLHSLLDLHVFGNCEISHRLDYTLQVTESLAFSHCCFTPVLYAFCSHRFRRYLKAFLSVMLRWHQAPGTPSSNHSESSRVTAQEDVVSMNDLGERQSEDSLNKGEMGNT

B1: mouse CXCL5 (ligand)
chain: APSSVIAATELRCVCLTVTPKINPKLIANLEVIPAGPQCPTVEVIAKLKNQKEVCLDPEAPVIKKIIQKILGSDKKKAKRNALAVERTASVQ
modifications: The paper prints no limits. The full-length mature chain after the signal peptide was taken for the 'native' chemokine (Protein Foundry); the commercial form could instead be GCP-2(1-78), 41-118, or …
B2: mouse CXCL11 (ligand, UniProt Q9JHH5 22-100, looked up)
chain: FLMFKQGRCLCIGPGMKAVKMAEIEKASVIYPSNGCDKVEVIVTMKAHKRQRCLDPRSKQARLIMQAIEKKNFLRRQNM
notes: CXCL11, mouse, native chemokine; source: bought: Protein Foundry
B3: mouse CXCL10 (ligand, UniProt P17515 22-98, looked up)
chain: IPLARTVRCNCIHIDDGPVRMRAIGKLEIIPASLSCPRVEIIATMKKNDEQRCLNPESKTIKNLMKAFSQKRSKRAP
notes: CXCL10, mouse, native chemokine; source: bought: Protein Foundry

Target: T1, mouse ACKR2 N-terminally fused with the …
Assay: FRET or BRET; NanoBRET competition binding, concentration-response: increasing chemokine (highest 300 nM) against LIH222-AZ594 (5 nM for human, 10 nM for mouse) on HEK293T cells expressing NanoLuc-ACKR2; 2 h on ice
Settings: one partner purified

| Binder | pIC50 |
| --- | --- |
| B1 | ≤ 8.51 |
| B2 | ≤ 7.04 |
| B3 | ≤ 8.01 |
